The substances below were run on HEK293T (assay: median enrichment of reporter reads in eGFP-reduced (low/intermediate) vs eGFP-high sorted cells (eGFP-extension fusion abundance) (ratio); higher = stronger loss of eGFP-fusion protein abundance (more destabilising extension)).
In the case of “SDRTCLRGRRTLAWAQESEAAFLLRGPSGESGPRYHARTLRGPVSCRRVSTFPPNPGLTALRSARRARAETRVGCGELKEPIK [UQCC3]”, the median enrichment is reported as 3.65. In the case of SDS [POLE2], the median enrichment is reported as 0.445. SDSESN [MCM6] showed a median enrichment of 0.12. In the case of SDTLLWSETEDVG [PEX7], the median enrichment is reported as 2.59. SDVQDL [ZMPSTE24] showed a median enrichment of 0.181. “SDYCKPLPLLPCLCLFSPLTYSISQPPPTCLCDLRTVPSRHWDKGRISCSPPESAWCCPLFPLCAYD [PRPF3]” showed a median enrichment of 2.87. For SEAPAANTMQARCVSELF [METTL2B], the median enrichment was 0.81. SECTLQSWWFLRVGLDRVAAC [BPHL] gave a median enrichment of 7.67. For SEELPGRTQDAEPRSLPG [ACAN], the median enrichment was 0.794. “SEEPQDHTHSPYPPQDYRTFWHTLYRVLGFTPQNDPTMSTHHQNPANGPPLPPSPDAEMVMGSWRVGSEMKGTPQWAAGPIFP [SLC13A5]” showed a median enrichment of 3.6. In the case of SEEQPSFVPVVFIKYPLHP [WDR54], the median enrichment is reported as 6.65. Work on “SEERMYVCFTHRHQESSPMRFFFGGGRVYTAREQKYCVS [B4GALT5]” yielded a median enrichment of 9.99. SEITDTFFGIHILGLGGVAHACNPSPLGG [CTSL] was tested, and the median enrichment was 13.3. With “SEMMSCPGPMATRTLQATLLCDQARIPGAGLRGLNGPSGTQVGLSTLSPTTQPTALK [TMEM54]” the median enrichment was 0.763. SEMPAALPCQR [CUEDC1] showed a median enrichment of 1.21. Substance “SEPQLTKSACPRTAPALELGARAAELVFGPQRRIQNQKLKSDVRWAPAPSAESRQGEAGWSQAPSHAAPKSWTHLWGAPHLHL [MYO9B]” has a median enrichment of 7.17. Substance SEPSHSLSPLPCLPHLPPTTRA [RAB3A] has a median enrichment of 0.136. SERQEVEWRR [STAMBPL1] was tested, and the median enrichment was 0.37. Work on SESTGSSQTYRCPAR [FAM221B] yielded a median enrichment of 0.476. Work on “SETAGFLLLFFLVVQLSPPPLLSCLLIWSFSLFSACHVFSGTYLHPPQHQFP [CNTNAP5]” yielded a median enrichment of 11.4. Work on SETEASLFHSPS [EPB41L4B] yielded a median enrichment of 0.374. In the case of SEVIFL [CES5A], the median enrichment is reported as 1.39. For SEVLLETKSPSPIAEGGGDPLL [ARID3C], the median enrichment was 0.257. For “SEVPDMGPICSSSQLLSLTSHHGGSSHLLWICSL [CIAPIN1]”, the median enrichment was 4.18. For “SEVRACAMCETGKLGAQFEFFLFFFFLSTKNTLMVNTGQNQERMCSFQGLGQNL [GAB3]”, the median enrichment was 7.14. “SEVRPGPGQGLGPAPCPICSGPQAPPFEEVG [GUCY2D]” was tested, and the median enrichment was 1.47. Substance SFAFIF [CHST9] has a median enrichment of 8.28. SFFFPSAS [KAT2B] was tested, and the median enrichment was 2.2. For SFFSLSRFLAALVLL [LONRF2], the median enrichment was 8.16. In the case of SFHLLKPAYFRTLRLTVFSLLMMSSC [PIK3AP1], the median enrichment is reported as 11.1. Work on SFLFYSH [DNAJB9] yielded a median enrichment of 9.2. In the case of SFQNWMDFYFFQ [CCDC169], the median enrichment is reported as 19.6. Work on SFTHHMDSIYKSQ [EDNRB] yielded a median enrichment of 1.08. “SGAENGSCRKIRLRRLPAFCHPSHSQTPDHLKLLTLWFQIFFNLLLLLSLSNLGTFKNREMSECG [STAT3]” gave a median enrichment of 6.44. Substance SGAGPGPRGGTSINSVAKLE [MYL7] has a median enrichment of 0.743. With SGAKQRHQLLHQKS [SGMS2] the median enrichment was 0.386. Work on “SGARLWDRPGPASGGDPGSGLGSPDLEACPSRASQD [CEBPA]” yielded a median enrichment of 0.648. SGASQRSAHADNKVALSLE [FIBP] showed a median enrichment of 0.209. SGCHGRLSPSIL [KRTAP6-1] gave a median enrichment of 0.506. Work on SGEMCVTINSKMGKPPSPCI [AK3] yielded a median enrichment of 0.494. For SGFLKLSSKLLRLFK [FABP12], the median enrichment was 7.41. For “SGGLPRRAKMAEMILKITEEREDQPEFPLDICVFLFFYFVLFFLLLLLP [SOX9]”, the median enrichment was 4.3. SGGV [DHRS2] gave a median enrichment of 0.226. With “SGGVGPGRAGVCWHRQPPLWALGGPLKGSPTRGPDESFLSGVGSQRGSPPAAWGRAWPGRVIQRVCQPLTGSPSVAATRSTEL [FAM53B]” the median enrichment was 5.41. With SGIRLPGNSGTVALADHLQHPAS [SLC2A10] the median enrichment was 0.633. For SGKWCFPQEDYWNWMTSE [ACBD5], the median enrichment was 2. SGLDSTRALENEMTV [APCS] showed a median enrichment of 0.582. With “SGLELYPGPNSRTTRGLQTFLGGQAGQMAPPLGNAPSCAVERS [ELF3]” the median enrichment was 2.16. Substance “SGLLALTLQPTLAVWPSPGSFPAPLPLFPVLLNSPSWRVQALGMGGTRPHSFHRALRPDTADQPHSAQEAASGVGAQRGTAAS [BAP1]” has a median enrichment of 1.74. Work on SGLLLY [MRPL20] yielded a median enrichment of 1.83. In the case of “SGLLPLGPLTLSGWWTTKYNPVYNLKIYFTFVLLYLFIKG [SMAD4]”, the median enrichment is reported as 7.74. SGLPLPSLLEIVNPAVCAGLIVSVL [FBXO25] gave a median enrichment of 6.93. In the case of SGLQGRQLSFV [SYT17], the median enrichment is reported as 0.686. “SGLSDCPCPAHHPVTATPKPTPTGAHCPTPAPGRHPAGHFTCCH [FERMT3]” gave a median enrichment of 1.55. Work on “SGLVCRTAAGAPPGQIIAASDCGLYLFIPSDFFNVRYL [FBLN1]” yielded a median enrichment of 30.5. With “SGLWPGTRSHLAGRWLLPQFSLENPQLSTHPLPQNQFQ [RBM42]” the median enrichment was 9.36. SGNRDAFPCSSLQPPLPYKIWSNS [ADH1B] was tested, and the median enrichment was 2.16. “SGPGIHVGGRGRGGRREGRGEIHTVDTLTSWPKSLPQDLPDLHGQASYGGVSISFFLFLFPGLRASWGPRFTNSPTPLKLWRR [AQP1]” showed a median enrichment of 5.75. In the case of “SGPPFGHHQVPKVPQEASTLHARPASISLSFPVWPSFEGHVRWRSQARQTLTRGLSSKRALGWTTENISSRGSYNKNTYLPAL [PLPP7]”, the median enrichment is reported as 3.53. Work on SGPPPAILSS [CYP4A22] yielded a median enrichment of 0.549. For SGQGPRTQCLARPLPLAFEAKASSR [AGT], the median enrichment was 0.949. SGQGQPRD [SLC5A5] was tested, and the median enrichment was 0.35. SGSCCVPTETTIWGLLGNAVNAEGSDVWVL [PATZ1] showed a median enrichment of 10.9. In the case of SGSIFLIDEKNNSVMAIYPC [NDUFA1], the median enrichment is reported as 9.19. With “SGSRRSRRDPHGSIALASDLAWRYFCRELGSRNASDLSALHIVGLKSGWELAKSLFRLFN [MRPL34]” the median enrichment was 8.92. “SGSVTRCSLIPADLTGPLANPTSNQKCSSVESETGKWLLQDYSLLQKRNQIHEWKSLCKFNFITHNMYYFF [PUM1]” showed a median enrichment of 8.89. SGTAVPACSPHLGRGSLAAFSLRSRST [AGAP1] gave a median enrichment of 8.94. Substance SGTRKEID [PCDHB16] has a median enrichment of 0.57. “SGTVGCVGVGIPLAPASPTLALQLGPRGISVLLSQGRSPAGDGGRGSSILPRVCLGVCEQVCKTPEAEAILPPRSLEGVCAWA [ZSWIM4]” showed a median enrichment of 5.27. In the case of SGTWCATGCKLQGIFIGCSCIVLHSSAIYF [PSEN2], the median enrichment is reported as 7.44. In the case of SGV [PTCHD4], the median enrichment is reported as 0.462. For “SGVLSSHFCVTCHFLPLVPCRFGMKMVSFAVFNLFFIMVEYSSRSFVLVYEENLHIFFVFQ [CHIC1]”, the median enrichment was 9.4. In the case of SGWGWTNNQARAEGFMERPLGDPR [S1PR2], the median enrichment is reported as 0.739. “SGWLSLPFSPSLSALGSVSTAGPKVKVLPLPEASWQGLSWLEVASLVPVLTPRPQRSCLPCCLSPPLCLCLRCVSHSEPPCFC [CCDC97]” gave a median enrichment of 5.33. With “SGWLSTCSSWMASGPKLQSLNDQEQHEGLGTYPCKEFLDG [SQOR]” the median enrichment was 1.57. For SHFKLTL [PTGIR], the median enrichment was 1.1. Substance “SHGGVRSCPCSESTFPAIPGAGGACASAIPCDQAPRGRDQRGRKHCACAELSASARRASLPNQPWVPGSRLEPAINSLFLAPG [TSSK6]” has a median enrichment of 4.1. For SHH [SPRY2], the median enrichment was 0.73. Substance SHHQELTHT [NUP88] has a median enrichment of 0.49. For SHVGQIKRQLQK [CTSO], the median enrichment was 0.527. SHVRNLSIK [AGTR1] gave a median enrichment of 0.587. With SIFFYQEG [PTEN] the median enrichment was 2.76. “SIILSPFGSCVERECEIYIISFWERLVLDAP [HSP90B1]” showed a median enrichment of 10.5. In the case of SILFHLILALHLLYISPE [CLRN3], the median enrichment is reported as 9.21. SIPHPGSSAPRAGGHLRSVISL [IP6K2] was tested, and the median enrichment was 0.975. Work on SISL [NPAS4] yielded a median enrichment of 0.469. SISPSC [OR5AK2] was tested, and the median enrichment was 0.461. Substance “SITLILWKSEQAVAVFHSSSCCVQLLPSQPFNKIILKCYPSALPFNGKMKGSDNTGGPNFVPVLCVPYLSVPVYRLCKSLV [RABL3]” has a median enrichment of 6.24. SIVLSTNLKSKGSSQSQPLCP [HIST1H3E] showed a median enrichment of 3.49. SKACILFEDIYKAI [KRT34] showed a median enrichment of 2.29. For “SKCVLRASLFFTAAATFPHCLRCREGQVPASTGISDKPRAQPTRGSSLHAHTGYGDGGLQVSSARGLSLWHPHSCPAREALVV [SSNA1]”, the median enrichment was 5.95. For SKERHTSEQRSYMCTK [DEFB114], the median enrichment was 0.227. SKGQLPGKTRF [PHLDA1] showed a median enrichment of 1.67. Work on SKHLKC [FAN1] yielded a median enrichment of 0.578. For SKILVLLNYLI [TIPARP], the median enrichment was 5.53. SKNQRGSEKPRET [CDKN2A] gave a median enrichment of 0.493. “SKQKHQHTSLDNSIWSTRLSYRFNFFCILRTL [HNRNPH3]” gave a median enrichment of 6.48. With SKQVTDLF [FOXN3] the median enrichment was 0.53. SKRGHMESGGHLDD [PTGR1] was tested, and the median enrichment was 0.345. “SKRPGRKPPPLKVVFVTVLWSIVLKMGNYILLCQGQQTPAVKGIPSARRLFGACMFIAPARPDRGLLHKPCLVHFFTCKGTEC [AHNAK]” showed a median enrichment of 7.93. SKTNTFYLWEAVPRFQPEL [ZBTB21] gave a median enrichment of 11.3. Work on SKTWPENPQVLQRKTELGKGESWKDGAD [ABHD15] yielded a median enrichment of 0.348. SKWADE [PLPP5] was tested, and the median enrichment was 0.25. Substance SLCC [POLQ] has a median enrichment of 0.62. For SLCFV [E2F3], the median enrichment was 2.42. SLEWTTAKLAPSSDRKPPCVGDCRHAK [TM9SF4] was tested, and the median enrichment was 1.73. SLFSLTYRMLV [ZNF639] was tested, and the median enrichment was 6.9. For SLIRLAT [AK6], the median enrichment was 9.3. In the case of SLKPITVLTAQWN [KCNA2], the median enrichment is reported as 10.7. With SLLLVPK [RBKS] the median enrichment was 1.87. Work on SLREAC [ZNF672] yielded a median enrichment of 0.708. SLRLQRLLCIAFLLQCKERDQGSQEMFAQNGR [GDNF] gave a median enrichment of 8.43. “SLRSLRAGPSAAGSCLNTSLDMARTHRDTGQDQPCLWRQDTTIWPMAVTSCRVQSQTGNHHLRQDLPASFTFLISRALPPILC [SLC22A13]” was tested, and the median enrichment was 8.01. SLTVFHKEDV [ATP2A2] was tested, and the median enrichment was 0.983. Work on “SLYGAICPPSPSRTLEGTSAPAGLGPPLSLLQASWCLHTSGSWPRKSQQEQGMGEGRCHTTWR [CISH]” yielded a median enrichment of 4.49. Work on SLYKKVGTMAAG [Degron KLHDC3] yielded a median enrichment of 7.34. With SLYQKPEVE [UGT2B17] the median enrichment was 0.724. Substance SLYRLRR [ST3GAL6] has a median enrichment of 3.73. In the case of “SMALVALEWDPALTSPRANLGGAEGALGHRKQGKKGRSCGEMTLIFDCYPNLDL [NDRG2]”, the median enrichment is reported as 7.41.
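Also: lentiviral eGFP-IRES-mCherry reporter pool sorted by FACS 96 h post-transduction, gated on mCherry-high cells, Illumina read counts normalized per million, median across four biological replicates.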
